The record followed here is publication PMC4388176.

This data set concerns the target T1, Reb1 (146-504) (Schizosaccharomyces pombe, UniProt Q9P6H9).
T1 sequence: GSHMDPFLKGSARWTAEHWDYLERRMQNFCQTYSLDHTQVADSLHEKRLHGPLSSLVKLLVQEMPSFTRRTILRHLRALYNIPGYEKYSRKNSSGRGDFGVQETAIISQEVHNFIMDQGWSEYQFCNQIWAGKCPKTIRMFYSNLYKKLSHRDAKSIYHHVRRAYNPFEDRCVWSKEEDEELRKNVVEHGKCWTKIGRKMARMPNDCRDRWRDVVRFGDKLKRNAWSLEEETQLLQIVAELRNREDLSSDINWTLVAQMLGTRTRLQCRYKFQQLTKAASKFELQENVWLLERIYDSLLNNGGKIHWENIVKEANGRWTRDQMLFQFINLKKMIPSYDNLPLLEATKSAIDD
Put plainly: X-ray crystallography.

B1: Ter3 26-mer (crystal) (dsDNA)
DNA 1: GTAAAAGGTAAGGGTAATGCACTTTT
DNA 2: CAAAAGTGCATTACCCTTACCTTTTA
In the case of B1, the binding result was “binds”.
